Laboratory results: the Human Domainome abundance scans (Beltran et al. 2025)
± gives the uncertainty stated by the source.

B1: Far upstream element-binding protein 2, residues 142 to 214; numbered along this chain, Q92945 (parent)
chain: RTSMTEEYRVPDGMVGLIIGRGGEQINKIQQDSGCKVQISPDSGGLPERSVSLTGAPESVQKAKMMLDDIVSR

Variants of: B1
Assay: abundance fitness (aPCA) (normalised: wild type 0, dead -1); higher = more abundant; growth selection in yeast, the domain comes from the species named
Conditions: Homo sapiens

Q: With RTSMTEEYRVPDGMVGLIIGRGGEQINKIQQPSGCKVQISPDSGGLPERSVSLTGAPESVQKAKMMLDDIVSR as the variant, how does the abundance fitness read?
A: -1.1 ± 0.11

Q: With RTSMTEEYRVPDGMVGLIIGRGGEQINKIQQHSGCKVQISPDSGGLPERSVSLTGAPESVQKAKMMLDDIVSR as the variant, how does the abundance fitness read?
A: -0.072 ± 0.088

Q: Which abundance fitness does the source give for RTSMTEEYRVPDGMVGLIIGRGGEQINKIQQLSGCKVQISPDSGGLPERSVSLTGAPESVQKAKMMLDDIVSR here?
A: -0.005 ± 0.05

Q: For RTSMTEEYRVPDGMVGLIIGRGGEQINKIQQCSGCKVQISPDSGGLPERSVSLTGAPESVQKAKMMLDDIVSR, which abundance fitness is on record?
A: -0.141 ± 0.082

Q: With RTSMTEEYRVPDGMVGLIIGRGGEQINKIQQWSGCKVQISPDSGGLPERSVSLTGAPESVQKAKMMLDDIVSR as the variant, how does the abundance fitness read?
A: -0.243 ± 0.057

Q: With RTSMTEEYRVPDGMVGLIIGRGGEQINKIQQTSGCKVQISPDSGGLPERSVSLTGAPESVQKAKMMLDDIVSR as the variant, how does the abundance fitness read?
A: -0.074 ± 0.061

Q: Which abundance fitness does the source give for RTSMTEEYRVPDGMVGLIIGRGGEQINKIQQGSGCKVQISPDSGGLPERSVSLTGAPESVQKAKMMLDDIVSR here?
A: -0.156 ± 0.044

Q: With RTSMTEEYRVPDGMVGLIIGRGGEQINKIQQKSGCKVQISPDSGGLPERSVSLTGAPESVQKAKMMLDDIVSR as the variant, how does the abundance fitness read?
A: -0.043 ± 0.084

Q: Which abundance fitness does the source give for RTSMTEEYRVPDGMVGLIIGRGGEQINKIQQMSGCKVQISPDSGGLPERSVSLTGAPESVQKAKMMLDDIVSR here?
A: 0.019 ± 0.066

Q: Which abundance fitness does the source give for RTSMTEEYRVPDGMVGLIIGRGGEQINKIQQRSGCKVQISPDSGGLPERSVSLTGAPESVQKAKMMLDDIVSR here?
A: -0.085 ± 0.042

Q: With RTSMTEEYRVPDGMVGLIIGRGGEQINKIQQFSGCKVQISPDSGGLPERSVSLTGAPESVQKAKMMLDDIVSR as the variant, how does the abundance fitness read?
A: -0.364 ± 0.14

Q: For RTSMTEEYRVPDGMVGLIIGRGGEQINKIQQVSGCKVQISPDSGGLPERSVSLTGAPESVQKAKMMLDDIVSR, which abundance fitness is on record?
A: -0.04 ± 0.052

Q: For RTSMTEEYRVPDGMVGLIIGRGGEQINKIQQSSGCKVQISPDSGGLPERSVSLTGAPESVQKAKMMLDDIVSR, which abundance fitness is on record?
A: -0.047 ± 0.055

Q: For RTSMTEEYRVPDGMVGLIIGRGGEQINKIQQDDGCKVQISPDSGGLPERSVSLTGAPESVQKAKMMLDDIVSR, which abundance fitness is on record?
A: -0.916 ± 0.096

Q: With RTSMTEEYRVPDGMVGLIIGRGGEQINKIQQDYGCKVQISPDSGGLPERSVSLTGAPESVQKAKMMLDDIVSR as the variant, how does the abundance fitness read?
A: -0.55 ± 0.097

Q: For RTSMTEEYRVPDGMVGLIIGRGGEQINKIQQDGGCKVQISPDSGGLPERSVSLTGAPESVQKAKMMLDDIVSR, which abundance fitness is on record?
A: -0.861 ± 0.049

Q: Which abundance fitness does the source give for RTSMTEEYRVPDGMVGLIIGRGGEQINKIQQDVGCKVQISPDSGGLPERSVSLTGAPESVQKAKMMLDDIVSR here?
A: -0.714 ± 0.053

Q: With RTSMTEEYRVPDGMVGLIIGRGGEQINKIQQDMGCKVQISPDSGGLPERSVSLTGAPESVQKAKMMLDDIVSR as the variant, how does the abundance fitness read?
A: -0.806 ± 0.086

Q: With RTSMTEEYRVPDGMVGLIIGRGGEQINKIQQDAGCKVQISPDSGGLPERSVSLTGAPESVQKAKMMLDDIVSR as the variant, how does the abundance fitness read?
A: -0.138 ± 0.044

Q: With RTSMTEEYRVPDGMVGLIIGRGGEQINKIQQDNGCKVQISPDSGGLPERSVSLTGAPESVQKAKMMLDDIVSR as the variant, how does the abundance fitness read?
A: -0.897 ± 0.15

Q: For RTSMTEEYRVPDGMVGLIIGRGGEQINKIQQDLGCKVQISPDSGGLPERSVSLTGAPESVQKAKMMLDDIVSR, which abundance fitness is on record?
A: -0.575 ± 0.055

Q: With RTSMTEEYRVPDGMVGLIIGRGGEQINKIQQDIGCKVQISPDSGGLPERSVSLTGAPESVQKAKMMLDDIVSR as the variant, how does the abundance fitness read?
A: -0.452 ± 0.13

Q: With RTSMTEEYRVPDGMVGLIIGRGGEQINKIQQDTGCKVQISPDSGGLPERSVSLTGAPESVQKAKMMLDDIVSR as the variant, how does the abundance fitness read?
A: -0.006 ± 0.055

Q: For RTSMTEEYRVPDGMVGLIIGRGGEQINKIQQDEGCKVQISPDSGGLPERSVSLTGAPESVQKAKMMLDDIVSR, which abundance fitness is on record?
A: -0.854 ± 0.061

Q: Which abundance fitness does the source give for RTSMTEEYRVPDGMVGLIIGRGGEQINKIQQDRGCKVQISPDSGGLPERSVSLTGAPESVQKAKMMLDDIVSR here?
A: -1.06 ± 0.056

Q: For RTSMTEEYRVPDGMVGLIIGRGGEQINKIQQDPGCKVQISPDSGGLPERSVSLTGAPESVQKAKMMLDDIVSR, which abundance fitness is on record?
A: -1.01 ± 0.075

Q: Which abundance fitness does the source give for RTSMTEEYRVPDGMVGLIIGRGGEQINKIQQDWGCKVQISPDSGGLPERSVSLTGAPESVQKAKMMLDDIVSR here?
A: -1.09 ± 0.08

Q: For RTSMTEEYRVPDGMVGLIIGRGGEQINKIQQDCGCKVQISPDSGGLPERSVSLTGAPESVQKAKMMLDDIVSR, which abundance fitness is on record?
A: -0.053 ± 0.061

Q: With RTSMTEEYRVPDGMVGLIIGRGGEQINKIQQDFGCKVQISPDSGGLPERSVSLTGAPESVQKAKMMLDDIVSR as the variant, how does the abundance fitness read?
A: -0.474 ± 0.092

Q: With RTSMTEEYRVPDGMVGLIIGRGGEQINKIQQDHGCKVQISPDSGGLPERSVSLTGAPESVQKAKMMLDDIVSR as the variant, how does the abundance fitness read?
A: -0.854 ± 0.11

Q: For RTSMTEEYRVPDGMVGLIIGRGGEQINKIQQDSGIKVQISPDSGGLPERSVSLTGAPESVQKAKMMLDDIVSR, which abundance fitness is on record?
A: -0.786 ± 0.16

Q: For RTSMTEEYRVPDGMVGLIIGRGGEQINKIQQDSGDKVQISPDSGGLPERSVSLTGAPESVQKAKMMLDDIVSR, which abundance fitness is on record?
A: -0.564 ± 0.079

Q: For RTSMTEEYRVPDGMVGLIIGRGGEQINKIQQDSGAKVQISPDSGGLPERSVSLTGAPESVQKAKMMLDDIVSR, which abundance fitness is on record?
A: -0.029 ± 0.046

Q: With RTSMTEEYRVPDGMVGLIIGRGGEQINKIQQDSGEKVQISPDSGGLPERSVSLTGAPESVQKAKMMLDDIVSR as the variant, how does the abundance fitness read?
A: -0.563 ± 0.054

Q: With RTSMTEEYRVPDGMVGLIIGRGGEQINKIQQDSGHKVQISPDSGGLPERSVSLTGAPESVQKAKMMLDDIVSR as the variant, how does the abundance fitness read?
A: -0.917 ± 0.13

Q: For RTSMTEEYRVPDGMVGLIIGRGGEQINKIQQDSGFKVQISPDSGGLPERSVSLTGAPESVQKAKMMLDDIVSR, which abundance fitness is on record?
A: -1.15 ± 0.18

Q: With RTSMTEEYRVPDGMVGLIIGRGGEQINKIQQDSGKKVQISPDSGGLPERSVSLTGAPESVQKAKMMLDDIVSR as the variant, how does the abundance fitness read?
A: -0.545 ± 0.071

Q: For RTSMTEEYRVPDGMVGLIIGRGGEQINKIQQDSGGKVQISPDSGGLPERSVSLTGAPESVQKAKMMLDDIVSR, which abundance fitness is on record?
A: -0.756 ± 0.042
